# Reference: article PMC5638340 (PLoS ONE, 2017)
# B1: PLA2 from porcine pancreas (enzyme)
# chain: not shown
# notes: also called PP PLA2; porcine pancreatic PLA2
# Target: T1, Extracellular domain (ECD) of the human neuronal α9 nAChR (human, UniProt Q9UGM1 23-238)
# T1 construct: also called ECD of human α9 nAChR; water-soluble extracellular domain of human α9 nAChR; source: expressed, enzymatically deglycosylated and purified as described [26]
# Assay: radioligand binding
# Settings: both partners purified
# T1 sequence (Q9UGM1 23-238): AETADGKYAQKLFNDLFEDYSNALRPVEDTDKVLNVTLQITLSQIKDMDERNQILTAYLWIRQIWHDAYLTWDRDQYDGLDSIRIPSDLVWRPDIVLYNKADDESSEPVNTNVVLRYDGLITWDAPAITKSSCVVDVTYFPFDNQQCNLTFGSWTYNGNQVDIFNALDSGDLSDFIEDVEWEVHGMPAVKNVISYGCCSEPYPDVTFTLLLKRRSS
binder,measurement,value
B1,IC50,5.5 µM
